From the nanobody polyreactivity screen of Harvey et al. (2022)

test: yeast display, Sf9 membrane polyspecificity reagent, FACS + sequencing; frameworks hold sequencing errors
Summary of the method: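 Using colony PCR, genes from sorted yeast display clones were amplified, then sequenced on MiSeq at 2 × 250 and filtered by CDR length. The clones had been stained with 10% biotinylated, detergent-solubilized Sf9 membrane reagent for 1 hour at 4 °C and sorted by FACS into low and high (top ~1%) gates on anti-HA and streptavidin fluorescence. Polyreactivity labels come from the gate of origin.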

Row | Sequence | polyreactivity (PSR sort gate)
1 | QVQLVESGGGLVQAGGSLRLSCAASGFNFPYYAMGWYRQAPGKERALVAAIRISGGSTYYADSVKGRFTISRDNAKNTVYLQMNSLKPEDTAVYYCAADYRYRSRFYYWGQGTQVTVSS | low polyreactivity
2 | QVQLVESGGGLVQAGGSLRLSCAASGIIFDEYAMGWYRQAPGKERELVAAITWSGGSTYYADSVKGRFTISRDNAKNTVYLQMNSLKPEDTAVYYCNAVQSDEIAYGDTRLDYWGQGTQVTVSS | low polyreactivity
3 | QVQLVESGGGLVQAGGSLRLSCAASGLTFARTAKGWYRQAPGKERALVAAISSRGGSTYYADSVKGRFTISRDIANNTVYLQMNSLKPEDTAVYYCATSQVLRRDRYDYWGQGTQVTVSS | high polyreactivity
4 | QVQLVESGGGLVQAGGSLRLSCAASGSTFESYDMGWYRQAPGNERELVAAIDWSGGITYYADSVKGRFTISRDNAKNTVYLQMNSLKPEDTAVYYCNADWFVRYPKRVYWAEYDYWGQGTQVTVSS | low polyreactivity
5 | QVQLVETGGGLVQAGGSLRLSCAASGRTFAYNAMGWYRQAPGKARELVAAITGSGGRTYYADSVKGRFTISRDNAKNTVYLQMNSLKPEETAVYYCAAEGPEIKYYYWGQGTQVTVSL | low polyreactivity
6 | QVQLVESGGGLVQAGGSLRLSCAASGIIIHSYTMGWYRPAPGKERELVAAISTSGSTYYADSVKGRFTISRDNAKNTVYLQMHILKPEDTAVYYCNADYAQSGTNSQVGKYGYWGQGTQVTVSS | high polyreactivity
7 | QVQLVESCGGLVQAGGSLRLSCAASGLTFPKYAMGWYRQAPGKERELVARISYSGASTYYADSVKGRFTISRDNAKNTVYLQMNSLKPEDTAVYYCAARIYRVYYVHFAPYYYWGQGTQVTVSS | high polyreactivity
8 | QVQLVESGGGLVQAGGSLRLSCAASGFTFDSYAMGWYRQAPGKERELVAAITSDGSTYYADSVKGRFTISRDNAKNTVYLQMNSLKPEDTAVYYCAADGISLYATAYDYWGQGTQVTVSS | low polyreactivity
9 | QVQLVESGRGLVQAGGSLRLSCAASGRTFYYYTMGWYRQAPGKERELVAAISYSGGSTSYADSVKGRFTISRYNAKNTVYLQMNRLKPEDTAVYYCNAPYKYYTQRRYHYDYCGQGTQVTVSS | high polyreactivity
10 | QVQLVESGGGLVQAGGSLRLSCAASGRTFRYYALGWYRQAPGKERELVAAITSSGDSTYYADSVKGRFTISRDNAKNTVYLQMHSLKQEDTAVYYCADGQPLFYDAEYGYWGQGTQVTVSS | low polyreactivity
11 | QVQLVESGGGLVQAGGSLRLSCAASGFIFYNYAMGWYRQAPGKERELVAAITGGGSTNYADSVKGRLTISRDNPKNTVYLQMNSLKPEDTAVYYCAAEEGPPWSRYDYWGQGTQVTVSS | low polyreactivity
12 | QVQLLESGGGLVQAGGSLRLSCASSGFIFAIYAMGWYRQAPGKERELVAAITSSSSTYADSVKGRFTISRDNAKNTVYLQMNSLKPEDTAVYYCAADTYSYRYSNDYWGQGTQVTVSS | low polyreactivity
13 | QVQLVESGGGLVQAGGSLRLSCAASGFIFRYYAMGWYRQAPGKERELVARINKSGGYTYYADSVKGRFTISRDNAKNTVYLQMNSLKPEDTAVYYCNRVRVFSVPFDYWGQGTQVTVSS | high polyreactivity
14 | QVQLVESGGGLVQAGGSLRLSCAASGFIFTRNAMAWYRQAPGKEREMVAGISVRGGATYYADSVKGRFTLSRDNAKNSFYLQMNSLKPEDTAVYYCAARYWRGPRYDYWGQGTKVTVSS | high polyreactivity
15 | QVQLVESGGGLVQAGGSLRLSCAASGRTFPYYAMGWYRQAPGKERELVAAINSGGITNYADSVKGRFTISRDNAKNTVYLQMNSLKPEDTAVYYCAAKTAFYRERGYWGQGTQVTVSS | low polyreactivity
16 | QVQLQESGGGLVQAGGSLRLSCAASGYISTFSSEMGWYRQAPGKERELVASIAPGCTTSYADSVKGRFTISRDNAKNTVYLQMNSLKPEDTAVYYCAVDFTVPASFGYWGQGTQVTVSS | high polyreactivity
17 | QVQLVESGGGLVQAGGSLRLSCAASGRIFGRNAMGWSRQAPGKERELVASITSGGSTNYADSVKGRFTISRYNAKNTVYLQMNSLKPEDTAVYYCNARWTGSYTSTGFRRRFDYWGQGTQVTVSS | high polyreactivity
18 | QVHLVESGGGLVQAGGSLRLSCAASGITFWGNAMGWYRHAPGKEREFVARINWSGGRTYYAESVKGRFTISRDNAKITVYLQMKSLKPEDTAVYYCAATSLIYGYRTYVYWGQGTQVTVSS | high polyreactivity
19 | QVQLVESGGGLVQAGGSLRLSCAASGFTLVLNAMGWYRQAPGKERELVAAIRRSAGSTYYADSVKGRFTISRDNAKNTVYLQMNSLKPEDTAVYYCAAGFLWAKYAYGHWGQGTQVTVSS | low polyreactivity
20 | QVQLVESGGGLVQAGGSLRLSCAASGSIFGSYAMGWYRQAPGNERELVAAISKSGGNTYYADSVKGRFTISRDNAKNTVYLQMNSLKPEDTAVYYCAARYRFLRPKVNYWGQGTQVTVSS | high polyreactivity
21 | QVQLVESGGGVFQAGGSLRLSCAASGSIYAFNPMGWYRQAPGKETEFVASIRSSTGRTYYADSVKGRFTISRDNAKNTVYLQMNSLKPEDTAVYYCAADSPEKPPRRWYITWPDGYWGQGTQVTVSS | low polyreactivity
